Laboratory results from publication PMC10491584, “Structural convergence endows nuclear transport receptor Kap114p with a transcriptional repressor function toward TATA-binding protein” (Nature Communications, 2023).

Assays:
Settings in all cases: both partners purified
Kap114pΔ(932-941) = target: T1, Kap114pΔ(932-941) (S. cerevisiae, UniProt P53067 1-1004, Δ(932-941)); assay: ITC; MicroCal iTC200, 25 °C, 20 mM HEPES pH 7.4, 150 mM NaCl; 25 or 50 μM wild type or mutant Kap114p in the cell, 250 or 500 μM wild-type or mutant yTBP^C in the syringe; triplicate
T1 construct: Kap114p, S. cerevisiae, full length with residues 932-941 deleted; also called Kap114p deletion mutant lacking the α-helix of the HEAT19 loop (a.a. 932-941); source: E. coli Rosetta, purified (GST resin, MonoQ, Superdex 200); not shown: GST, N-terminal, cleaved
T1 sequence (looked up): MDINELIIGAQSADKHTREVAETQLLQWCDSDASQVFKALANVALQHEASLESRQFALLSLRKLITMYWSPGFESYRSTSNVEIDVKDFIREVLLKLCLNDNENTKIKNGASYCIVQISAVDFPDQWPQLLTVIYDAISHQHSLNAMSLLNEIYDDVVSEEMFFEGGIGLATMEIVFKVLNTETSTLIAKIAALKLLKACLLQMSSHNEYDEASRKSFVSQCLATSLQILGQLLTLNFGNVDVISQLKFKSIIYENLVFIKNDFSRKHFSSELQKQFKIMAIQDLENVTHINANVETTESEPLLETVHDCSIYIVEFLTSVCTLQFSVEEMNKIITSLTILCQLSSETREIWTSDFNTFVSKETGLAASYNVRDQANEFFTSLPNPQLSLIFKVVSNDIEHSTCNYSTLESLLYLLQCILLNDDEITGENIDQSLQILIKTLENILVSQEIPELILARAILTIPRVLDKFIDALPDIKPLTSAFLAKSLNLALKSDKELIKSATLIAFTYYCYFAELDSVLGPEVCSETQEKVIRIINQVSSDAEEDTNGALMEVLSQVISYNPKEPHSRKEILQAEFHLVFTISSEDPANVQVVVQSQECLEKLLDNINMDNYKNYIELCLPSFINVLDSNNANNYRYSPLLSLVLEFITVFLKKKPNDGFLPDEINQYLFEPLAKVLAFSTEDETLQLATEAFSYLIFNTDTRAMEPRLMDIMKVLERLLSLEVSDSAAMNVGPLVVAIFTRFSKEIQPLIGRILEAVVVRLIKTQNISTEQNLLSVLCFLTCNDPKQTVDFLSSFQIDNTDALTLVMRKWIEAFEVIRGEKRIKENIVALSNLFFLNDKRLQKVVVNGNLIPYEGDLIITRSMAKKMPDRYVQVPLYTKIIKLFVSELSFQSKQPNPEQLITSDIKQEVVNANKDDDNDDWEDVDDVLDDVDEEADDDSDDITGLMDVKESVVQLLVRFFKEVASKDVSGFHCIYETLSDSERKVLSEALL

Kap114p (wild type) [1] = target: T2, Kap114p (wild type) (S. cerevisiae, UniProt P53067 1-1004); assay: as above
T2 construct: Kap114p, S. cerevisiae, full length, amplified from total genomic DNA; GST tag removed with PreScission protease; also called karyopherin-β Kap114p; source: E. coli Rosetta, purified (GST resin, MonoQ, Superdex 200); not shown: GST, N-terminal, cleaved
T2 sequence (looked up): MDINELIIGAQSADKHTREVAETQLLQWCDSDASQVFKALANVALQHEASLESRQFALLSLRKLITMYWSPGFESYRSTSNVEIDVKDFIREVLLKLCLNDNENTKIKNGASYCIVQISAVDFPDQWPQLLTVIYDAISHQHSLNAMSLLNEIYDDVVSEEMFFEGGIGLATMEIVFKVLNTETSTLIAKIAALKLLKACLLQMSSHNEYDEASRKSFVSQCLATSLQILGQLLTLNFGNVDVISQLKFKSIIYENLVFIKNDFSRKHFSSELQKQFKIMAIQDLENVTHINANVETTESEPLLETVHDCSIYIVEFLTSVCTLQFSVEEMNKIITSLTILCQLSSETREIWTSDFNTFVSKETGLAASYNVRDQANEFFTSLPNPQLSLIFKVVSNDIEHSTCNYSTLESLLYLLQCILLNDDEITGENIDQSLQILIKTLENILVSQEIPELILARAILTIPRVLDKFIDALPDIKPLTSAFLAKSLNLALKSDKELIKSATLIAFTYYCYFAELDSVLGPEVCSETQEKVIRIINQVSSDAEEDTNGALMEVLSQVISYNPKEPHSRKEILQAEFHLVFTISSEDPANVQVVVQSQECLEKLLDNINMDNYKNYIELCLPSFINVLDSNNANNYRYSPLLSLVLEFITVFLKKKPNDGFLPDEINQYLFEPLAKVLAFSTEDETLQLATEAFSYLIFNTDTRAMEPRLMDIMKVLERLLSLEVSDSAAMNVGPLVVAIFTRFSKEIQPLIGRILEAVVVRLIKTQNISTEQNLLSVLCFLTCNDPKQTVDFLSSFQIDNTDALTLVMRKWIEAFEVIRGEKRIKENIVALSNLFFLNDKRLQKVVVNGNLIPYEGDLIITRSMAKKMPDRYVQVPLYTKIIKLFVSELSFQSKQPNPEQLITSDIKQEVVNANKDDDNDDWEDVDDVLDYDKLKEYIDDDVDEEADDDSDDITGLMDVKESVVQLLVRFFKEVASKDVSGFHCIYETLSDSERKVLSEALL

Kap114p (wild type) [2] = target: T2, Kap114p (wild type); assay: cryo-EM structure; components purified from E. coli, mixed at an equal molar ratio, cross-linked with 0.01% glutaraldehyde, purified by SEC; Titan Krios 300 keV
Kap95p = target: T3, Kap95p (S. cerevisiae, UniProt Q06142 1-861); assay: ITC; Kap95p with wild type or R141A yTBP^C; which protein was in the cell is not told for Kap95p; n = 3
T3 construct: Kap95p, S. cerevisiae, full length; The purification paragraph is headed for Kap114p proteins; that Kap95p was treated alike is surmised; source: E. coli, GST-tagged construct in modified pGEX6p1; purification told for the GST-tagged proteins; not shown: GST, N-terminal, cleaved
T3 sequence (looked up): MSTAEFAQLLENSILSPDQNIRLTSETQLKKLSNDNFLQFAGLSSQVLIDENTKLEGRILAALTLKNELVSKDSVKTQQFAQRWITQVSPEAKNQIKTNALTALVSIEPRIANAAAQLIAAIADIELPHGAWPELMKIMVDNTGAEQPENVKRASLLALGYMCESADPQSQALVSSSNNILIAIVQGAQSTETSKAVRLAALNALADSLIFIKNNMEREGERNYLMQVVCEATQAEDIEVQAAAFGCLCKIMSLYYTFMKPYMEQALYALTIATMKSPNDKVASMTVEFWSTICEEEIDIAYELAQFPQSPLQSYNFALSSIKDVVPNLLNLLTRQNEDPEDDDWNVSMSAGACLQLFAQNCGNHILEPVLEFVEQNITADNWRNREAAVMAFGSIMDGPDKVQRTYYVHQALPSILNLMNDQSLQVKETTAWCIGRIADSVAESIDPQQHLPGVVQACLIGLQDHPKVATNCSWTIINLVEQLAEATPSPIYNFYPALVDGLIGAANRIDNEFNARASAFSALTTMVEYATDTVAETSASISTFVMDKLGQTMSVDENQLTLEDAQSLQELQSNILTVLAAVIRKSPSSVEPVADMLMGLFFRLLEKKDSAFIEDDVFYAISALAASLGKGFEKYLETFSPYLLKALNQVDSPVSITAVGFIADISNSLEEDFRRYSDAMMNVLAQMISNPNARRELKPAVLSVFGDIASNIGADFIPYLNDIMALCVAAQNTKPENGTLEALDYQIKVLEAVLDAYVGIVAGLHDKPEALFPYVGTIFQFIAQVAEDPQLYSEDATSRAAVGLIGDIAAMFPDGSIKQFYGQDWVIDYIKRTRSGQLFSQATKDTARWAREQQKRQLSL

Kap114p(Y370A) = target: T4, Kap114p(Y370A) (S. cerevisiae, UniProt P53067 1-1004, Y370A); assay: ITC; MicroCal iTC200, 25 °C, 20 mM HEPES pH 7.4, 150 mM NaCl; 25 or 50 μM wild type or mutant Kap114p in the cell, 250 or 500 μM wild-type or mutant yTBP^C in the syringe; triplicate
T4 construct: Kap114p, S. cerevisiae, full length, point mutant Y370A; source: E. coli Rosetta, purified (GST resin, MonoQ, Superdex 200); not shown: GST, N-terminal, cleaved
T4 sequence (looked up): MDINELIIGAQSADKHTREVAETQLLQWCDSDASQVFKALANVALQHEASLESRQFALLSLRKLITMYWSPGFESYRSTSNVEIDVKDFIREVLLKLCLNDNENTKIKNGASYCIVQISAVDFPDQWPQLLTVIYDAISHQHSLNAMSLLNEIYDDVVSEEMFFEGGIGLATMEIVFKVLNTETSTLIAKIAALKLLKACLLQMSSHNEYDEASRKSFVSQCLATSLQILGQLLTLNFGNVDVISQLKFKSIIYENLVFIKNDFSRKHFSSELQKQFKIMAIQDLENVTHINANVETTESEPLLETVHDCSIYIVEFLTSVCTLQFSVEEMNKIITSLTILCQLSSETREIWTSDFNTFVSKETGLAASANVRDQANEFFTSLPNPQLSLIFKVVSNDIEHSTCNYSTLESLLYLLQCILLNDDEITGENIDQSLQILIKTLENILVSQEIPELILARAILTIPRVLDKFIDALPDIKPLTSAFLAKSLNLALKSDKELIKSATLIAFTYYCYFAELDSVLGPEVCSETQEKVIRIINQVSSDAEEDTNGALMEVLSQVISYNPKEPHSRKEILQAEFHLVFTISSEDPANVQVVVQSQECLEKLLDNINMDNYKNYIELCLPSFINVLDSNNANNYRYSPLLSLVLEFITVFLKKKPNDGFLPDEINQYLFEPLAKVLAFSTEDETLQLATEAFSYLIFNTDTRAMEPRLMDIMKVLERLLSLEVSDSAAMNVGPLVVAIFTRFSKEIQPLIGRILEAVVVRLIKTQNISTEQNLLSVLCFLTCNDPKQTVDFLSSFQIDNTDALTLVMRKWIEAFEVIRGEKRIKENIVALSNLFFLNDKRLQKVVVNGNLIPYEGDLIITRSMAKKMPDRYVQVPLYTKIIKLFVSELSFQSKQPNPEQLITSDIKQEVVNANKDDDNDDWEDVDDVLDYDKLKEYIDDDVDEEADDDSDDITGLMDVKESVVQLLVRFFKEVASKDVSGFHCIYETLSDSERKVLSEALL

B1: core domain of yeast TATA-box binding protein (yTBP^C), wild type (domain or fragment, S. cerevisiae, UniProt P13393 61-240, looked up)
chain: SGIVPTLQNIVATVTLGCRLDLKTVALHARNAEYNPKRFAAVIMRIREPKTTALIFASGKMVVTGAKSEDDSKLASRKYARIIQKIGFAAKFTDFKIQNIVGSCDVKFPIRLEGLAFSHGTFSSYEPELFPGLIYRMVKPKIVLLIFVSGKIVLTGAKQREEIYQAFEAIYPVLSEFRKM
notes: 61-240; His tag removed with PreScission protease; also called yTBP core domain; source: E. coli Rosetta, purified (Ni-NTA, HiTrap SP, Superdex 75); not shown: His6, N-terminal, cleaved
For B1, the Kd (Kap114pΔ(932-941)) was roughly 158 nM, the Kd (Kap114p (wild type) [1]) was roughly 1 nM and the “stoichiometry N” value (Kap114p (wild type) [2]) was 1. The Kd (Kap95p) was roughly 8100 nM.

B2: yTBP^C (N91A) (domain or fragment, S. cerevisiae, UniProt P13393 61-240, looked up)
chain: SGIVPTLQNIVATVTLGCRLDLKTVALHARAAEYNPKRFAAVIMRIREPKTTALIFASGKMVVTGAKSEDDSKLASRKYARIIQKIGFAAKFTDFKIQNIVGSCDVKFPIRLEGLAFSHGTFSSYEPELFPGLIYRMVKPKIVLLIFVSGKIVLTGAKQREEIYQAFEAIYPVLSEFRKM
notes: 61-240, point mutant N91A; also called yTBP(N91A); source: E. coli Rosetta, purified (Ni-NTA, HiTrap SP, Superdex 75); not shown: His6, N-terminal, cleaved
B2 was tested, and the Kd (Kap114p(Y370A)) was roughly 1500 nM.
